T1: GST-ECT1 (Arabidopsis thaliana (Col-0), UniProt Q3MK94 1-428)
T1 sequence: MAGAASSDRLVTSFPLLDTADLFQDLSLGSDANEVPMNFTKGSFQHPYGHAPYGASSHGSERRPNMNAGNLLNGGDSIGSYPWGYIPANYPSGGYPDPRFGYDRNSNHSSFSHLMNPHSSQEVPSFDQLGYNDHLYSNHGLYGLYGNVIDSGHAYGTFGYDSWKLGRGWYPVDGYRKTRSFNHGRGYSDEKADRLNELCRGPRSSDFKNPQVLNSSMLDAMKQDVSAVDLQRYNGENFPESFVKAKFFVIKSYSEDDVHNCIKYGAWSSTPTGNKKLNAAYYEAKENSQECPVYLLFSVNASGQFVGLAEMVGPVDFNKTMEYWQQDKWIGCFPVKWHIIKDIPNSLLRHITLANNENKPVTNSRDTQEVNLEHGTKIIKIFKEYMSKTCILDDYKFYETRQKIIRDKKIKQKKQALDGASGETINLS

T2: GST-ECT1 (Arabidopsis, UniProt Q3MK94 1-428)
T2 sequence (looked up): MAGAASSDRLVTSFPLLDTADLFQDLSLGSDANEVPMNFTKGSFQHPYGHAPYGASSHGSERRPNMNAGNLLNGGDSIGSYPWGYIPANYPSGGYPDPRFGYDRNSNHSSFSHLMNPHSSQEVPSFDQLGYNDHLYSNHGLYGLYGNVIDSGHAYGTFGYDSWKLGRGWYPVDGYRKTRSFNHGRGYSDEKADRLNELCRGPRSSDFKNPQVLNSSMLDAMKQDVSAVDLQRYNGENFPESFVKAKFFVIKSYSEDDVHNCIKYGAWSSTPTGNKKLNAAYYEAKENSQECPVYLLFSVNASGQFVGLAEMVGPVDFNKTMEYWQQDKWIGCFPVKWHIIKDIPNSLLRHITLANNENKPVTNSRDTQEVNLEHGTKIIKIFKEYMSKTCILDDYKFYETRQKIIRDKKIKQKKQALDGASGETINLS


Columns and labels:
[1] = biological target: T1, GST-ECT1; test: EMSA
[2] = biological target: T2, GST-ECT1; test: pull-down

binding result [2]	Binder	binding result [1]
–	UCUUUUGUAAGACUUGUACUCUUUA (ssRNA, m6A at position 9) [UGUm6AA RNA]	binds
–	UCUUUUGUAAGACUUGUACUCUUUA (ssRNA) [UGUAA RNA (unmodified)]	no binding
binds	MBP-ECT1 (natural protein, Arabidopsis, UniProt Q3MK94 1-428, looked up) MAGAASSDRLVTSFPLLDTADLFQDLSLGSDANEVPMNFTKGSFQHPYGHAPYGASSHGSERRPNMNAGNLLNGGDSIGSYPWGYIPANYPSGGYPDPRFGYDRNSNHSSFSHLMNPHSSQEVPSFDQLGYNDHLYSNHGLYGLYGNVIDSGHAYGTFGYDSWKLGRGWYPVDGYRKTRSFNHGRGYSDEKADRLNELCRGPRSSDFKNPQVLNSSMLDAMKQDVSAVDLQRYNGENFPESFVKAKFFVIKSYSEDDVHNCIKYGAWSSTPTGNKKLNAAYYEAKENSQECPVYLLFSVNASGQFVGLAEMVGPVDFNKTMEYWQQDKWIGCFPVKWHIIKDIPNSLLRHITLANNENKPVTNSRDTQEVNLEHGTKIIKIFKEYMSKTCILDDYKFYETRQKIIRDKKIKQKKQALDGASGETINLS	–

Source: doi:10.1101/2024.07.24.604550 (bioRxiv, 2024)
